From patent WO2007042289A2 (dated 2007)

B1: PMP7E12 (VHH)
VHH: EVQLVESGGGLVQAGGSLRLSCTASGRTFENNAMAWFRQAAGKEREFVAGFSGSGGATYYAHSVEGRFTISRDNAKNTVDLQMNSLSLEDTAVYLCAARRKSGEVVFTIPARYDYWGQGTQVTVSS
notes: Anti-EGFR Nanobody
B2: PMP38G7 (VHH)
VHH: EVQLVESGGGLVQAGGSLRLSCAASGRTFSSYVMGWFRQATGKEREFVATIAWDSGSTYYADSVKGRFTISRDNAKNTVHLQMNSLKPEDTAVYYCAASYNVYYNNYYYPISRDEYDYWGQGTQVTVSS
notes: also called Nanobody family VIII
B3: PMP1C7 (VHH)
VHH: QVKLEESGGGLVQAGGSLRLSCVASGRTFSRTAMAWFRQAPGKEREFVATITWNSGTTRYADSVKGRFFISKDSAKNTIYLEMNSLEPEDTAVYYCAATAAAVITPTRGYYNYWGQGTQVTVSS
notes: Anti-IGF-IR Nanobody; tag not described; also called IGFRPMP1C7
B4: PMP9C1 (VHH)
VHH: EVQLVESGGGLVQAGGSLRLSCAASGRTFSGFAMGWFRQAPGKEREFVAAISWSGGSLLYVDSVKGRFTISRDNAKNTVHLQMNSLKPGDTAVYYCAAMVGPPPRSLDYGLGNHYEYDYWGQGTQVTVSS
notes: Anti-EGFR Nanobody; tag not described; also called Nanobody family X; Type C Nanobody
B5: 27-10-E8 (VHH)
VHH: EVQLVESGGGLVQAGGSLRLSCAASGRTFSTYTMAWFRQAPGKEREFVQGISRSDGGTYDADSVKGRFTISRDNAKNTVYLQMNSLKPEDTAVYFCAAASVKLVYVNPNRYSYWGQGTQVTVSS
notes: Anti-EGFR Nanobody, tested as periplasmic extract or IMAC purified protein; tag not described; also called Type A Nanobody
B6: PMP7A5 (VHH)
VHH: EVQLVESGGGLVQAGGSLRLSCAASDRTFSSNNMGWFRQAPGKEREFVAAIGWGGLETHYSDSVKGRFTISRDNAKNTVYLQMNSLKPEDTARYYCAVSSTRTVIYTLPRMYNYWGQGTQVTVSS
notes: Anti-EGFR Nanobody; tag not described; also called EGFRPMP7A5

Experiments:
[1] = target: T1, purified EGFR (Sigma) (human, UniProt P00533 25-1210, limits assumed)
T1 construct: Bought; purified from human A431 cells; also called solid phase coated EGFR

[2] = target: T2, recombinant human IGF-IR (rhIGFIR) (human, UniProt P08069 31-932, limits assumed); test: SPR (BIAcore), immobilized IGF-IR
T2 construct: Bought; also called immobilized IGF-IR

[3] = target: T3, EGFR expressed on cells and on A431 derived membrane vesicles (human, UniProt P00533 25-1210)
T3 construct: whole, on cells; Used for assays on whole cells and on immobilised A431 membrane vesicles; also called EGF receptor; EGFR harboring A431 vesicles

Binder | koff [1] [s⁻¹] | also measured
B1 | ≤ 0.0017 | –
B2 | ≤ 0.0017 | –
B3 | – | koff [2]: 0.0019 s⁻¹
B4 | – | binding result [3]: binds
B5 | ≤ 0.0017 | –
B6 | ≤ 0.0017 | –
